In PMC9328677 (Science Advances, 2021):
Residue numbers refer to the chain shown, from its start. Names and notes keep the numbering of the source.

B1: SUMO-APLF^AD truncated QA mutant (QA-Δ, residues 449 to 490) (domain or fragment)
chain: LDEDNDNVGQPNEADLNDSALDDEEEDAEPTDEDSDAEPGKE
notes: human APLF residues 449 to 490; source: E. coli BL21 Rosetta2 (DE3), purified; not shown: His tag, N-terminal, cleaved; SUMO, N-terminal, kept
B2: truncated APLF^AD construct corresponding to residues 449 to 490 (APLF^AD-Δ) (domain or fragment)
chain: GLDEDNDNVGQPNEYDLNDSFLDDEEEDYEPTDEDSDWEPGKE
notes: N-terminal Gly as leftover from TEV cleavage site; human APLF residues 449 to 490; Used for crystallisation with tailless Xl. histones and in ITC with the Dm. octamer-mix; source: E. coli BL21 Rosetta2 (DE3), purified
B3: acidic domain of Homo sapiens APLF (APLF^AD, residues 450 to 511), wild type (domain or fragment)
chain: DEDNDNVGQPNEYDLNDSFLDDEEEDYEPTDEDSDWEPGKEDEEKEDVEELLKEAKRFMKRK
notes: acidic domain of human APLF (aprataxin and polynucleotide kinase-like factor), residues 450 to 511; 15N- or 2H/13C/15N-labelled for NMR; Intrinsically disordered; also called APLF^AD WT; WT; source: E. coli BL21 Rosetta2 (DE3), purified (HisTrap, TEV cleavage, anion exchange, second HisTrap)
B4: SUMO-APLF^AD quadruple anchor mutant Y462A/F468A/Y476A/W485A (QA) (domain or fragment)
chain: B3 chain with Y13A, F19A, Y27A, W36A
notes: acidic domain of human APLF, residues 450 to 511; also called APLF^AD QA; source: E. coli BL21 Rosetta2 (DE3), purified; not shown: His tag, N-terminal, cleaved; SUMO, N-terminal, kept
B5: APLF^AD double anchor mutant Y462A/F468A (DA-34) (domain or fragment)
chain: B3 chain with Y13A, F19A
notes: acidic domain of human APLF, residues 450 to 511; source: E. coli BL21 Rosetta2 (DE3), purified
B6: peptide corresponding to APLF^459–474 (peptide)
peptide: Ac-PNEYDLNDSFLDDEEE-NH2
notes: human APLF residues 459-474; source: synthetic peptide, bought: Biomatik

Experiments:
Conditions in all cases: both partners purified
[1] = target: T1, stoichiometric mixture of full-length Drosophila melanogaster H2A-H2B and H3-H4 (octamer-mix) (Drosophila melanogaster, UniProt P84051 1-124; P02283 1-123; P02299 1-136; P84040 1-103); assay: ITC; 5 μM octamer-mix in the cell titrated with 90 μM APLF^AD in the syringe; 25 mM NaPi pH 7.0, 300 mM NaCl, 25°C; one set of sites model
T1 construct: histone H2A, Drosophila melanogaster, full-length; histone H2B, Drosophila melanogaster, full-length; histone H3, Drosophila melanogaster, full-length; histone H4, Drosophila melanogaster, full-length; At 300 mM NaCl without APLF^AD this is a mixture of H2A-H2B dimers and H3-H4 tetramers, not a preformed octamer; also called stoichiometric core-histone mix; histone octamer; copies: 2 + 2 + 2 + 2

[2] = target: T1, stoichiometric mixture of full-length …; assay: native MS; octamer-mix and APLF^AD mixed at 1:0.25 to 1:3 octamer equivalent to APLF^AD, exchanged into 300 mM ammonium acetate pH 7.5; Exactive Plus EMR
[3] = target: T2, Drosophila melanogaster histone H3-H4 complex, full-length (Drosophila melanogaster, UniProt P02299 1-136; P84040 1-103); assay: NMR titration; 20 μM [U-2H/13C/15N]H3-H4 incubated with 0, 10 or 20 μM APLF 459–474 peptide in 25 mM NaPi pH 7.0, 300 mM NaCl, then exchanged to 50 mM acetate pH 5; TROSY at 900 MHz, 308 K
T2 construct: histone H3, Drosophila melanogaster, full-length; histone H4, Drosophila melanogaster, full-length; Eluted as a histone tetramer in SEC; H3 was 2H/13C/15N-labelled for NMR on H3-H4; also called (H3-H4)2; histone tetramer; copies: 2 + 2

Binder	binding result [1]	also measured
B1	binds	–
B2	binds	–
B3	–	stoichiometry N [2]: 2 APLF^AD per histone octamer equivalent
B4	binds	–
B5	binds	–
B6	–	binding result [3]: binds
